The values below come from paper PMC8251270 (2021).

In the assay the target is recombinant receptor‐binding motif (RBM) of SARS‐CoV‐2 spike (S) protein, residue 437–508 (SARS-CoV-2, UniProt P0DTC2 437-508). Briefly: SPR. In general terms: SPR reads the build-up and loss of mass on a sensor chip optically.

B1: mAb8 (antibody, V domains shown)
VH: DVKLVESGGGLVKLGGSLKLSCAASGFTFSTDYMSWVRQSPEKRLELVAAINSNGGTTYYPDTVKGRFIISRDNAKNTLYLQMSSLRSEDTALYYCARQVKNGLDYWGQGTSVTVSS
VL: DIQMTQTTSSLSASLGDRVTISCRASQDISNYLNWYQQKPDGTVKLLIYKTSRLHSGVPSRFRGSGSGTDYSLTISNLEEEDVATYFCQQGNTLPPTFGGGTKLEIK
As to B1, the Kd (commonly the concentration at which binding is half-saturated) was 57.4 nM.
